Measurements: patent publication US20210292396A1
Numbering of substitutions follows the chain as printed.

Experiments:
Experiment in all cases: cell-based or functional assay
[1] = target: Env of HIV isolate UG021.16 (clade D) (HIV)
[2] = target: Env of HIV isolate CE703010217.B6 (clade C) (HIV)
[3] = target: Env of HIV isolate BJOX025000.01.1 (clade AE) (HIV)
[4] = target: Env of HIV isolate QH0515.01 (clade B) (HIV)
[5] = target: Env of HIV isolate BL01.DG (clade B) (HIV)
[6] = target: Env of HIV isolate 6095.v1.c10 (clade ACD) (HIV)
[7] = target: Env of HIV isolate CAP256.206.C9 (clade C) (HIV)
[8] = target: Env of HIV isolate Ce1176.A3 (clade C) (HIV)
[9] = target: Env of HIV isolate 398-F1.F6.20 (clade A) (HIV)
[10] = target: Env of HIV isolate R3265.c6 (clade AE) (HIV)
[11] = target: HIV Env of isolate CNE58 (HIV)
[12] = target: Env of HIV isolate CH070.1 (clade BC) (HIV)
[13] = target: Env of HIV isolate Q259.17 (clade A) (HIV)
[14] = target: Env of HIV isolate RW020.2 (clade A) (HIV)
[15] = target: Env of HIV isolate MW965.26 (clade C) (HIV)
[16] = target: Env of HIV isolate DU123.06 (clade C) (HIV)
[17] = target: Env of HIV isolate 269-12 (clade AG) (HIV)
[18] = target: Env of HIV isolate BX08.16 (clade B) (HIV)
[19] = target: Env of HIV isolate HO86.8 (clade B) (HIV)
[20] = target: Env of HIV isolate ZM53.12 (clade C) (HIV)
[21] = target: HIV Env of isolate CNE21 (HIV)
[22] = target: Env of HIV isolate 7165.18 (clade B) (HIV)
[23] = target: Env of HIV isolate 191821.E6.1 (clade D) (HIV)
[24] = target: HIV Env of isolate P0402.c2.11 (HIV)
[25] = target: HIV Env of isolate 426c (HIV)
[26] = target: Envelope protein of SVA.MLV (clade NA)
[27] = target: HIV Env of isolate DU156.12 (HIV)
[28] = target: HIV Env of isolate DU422.01 (HIV)
[29] = target: Env of HIV isolate 6535.3 (clade B) (HIV)
[30] = target: Env of HIV isolate CNE3 (clade AE) (HIV)
[31] = target: Env of HIV isolate 263-8 (clade AG) (HIV)
[32] = target: Env of HIV isolate 6405.v4.c34 (clade D) (HIV)
[33] = target: HIV Env of isolate 57128.vrc15 (HIV)
[34] = target: Env of HIV isolate TV1.29 (clade C) (HIV)
[35] = target: Env of HIV isolate 57128.vrc15 (clade D) (HIV)
[36] = target: Env of HIV isolate CNE12 (clade B) (HIV)
[37] = target: Env of HIV isolate CNE5 (clade AE) (HIV)
[38] = target: Env of HIV isolate 3718.v3.c11 (clade A) (HIV)
[39] = target: Env of HIV isolate 3365.v2.c20 (clade A) (HIV)
[40] = target: Env of HIV isolate 0077.v1.c16 (clade C) (HIV)
[41] = target: Env of HIV isolate 16936-2.21 (clade C) (HIV)
[42] = target: HIV Env of isolate P1981.C5.3 (HIV)
[43] = target: Env of HIV isolate BR025.9 (clade C) (HIV)
[44] = target: Env of HIV isolate 242-14 (clade AG) (HIV)
[45] = target: Env of HIV isolate BG1168.01 (clade B) (HIV)
[46] = target: HIV Env of isolate 3337.v2.c6 (HIV)
[47] = target: HIV Env of isolate BR025.9 (HIV)
[48] = target: HIV Env of isolate SO18.18 (HIV)
[49] = target: HIV Env of isolate 6471.v1.c16 (HIV)
[50] = target: Env of HIV isolate C3347.c11 (clade AE) (HIV)

B1: ePGT121.18 (ePGT121.18.H1 VH and ePGT121.17.L1 VL) (antibody, V domains shown)
VH: QMQLQESGPGLVKPGETLSLTCSVSGASISSSYWSWLRETPGKGLEWIGYTHHSGDTNYAPSLKSRVHLGLHPSKNQVSLSLTSVTAADTAVYYCARTLHGRRIYGVVAFNEYYTYFYWPTWGKGTQVTVSS
VL: SDISVAPGETVRITCGGESIGSRAVQWYQHRPGQAPRLIIYNNQDRPPGIPERFSGSPDIDFGTTATLTISNVEAGDEATYYCHIWDSRRPTNWELGPGTTLTVL
Q: What does the source list for B1?
A: IC50, pseudovirus neutralization [1]: 6 ng/mL; IC50, pseudovirus neutralization [2]: 2 ng/mL; IC50, pseudovirus neutralization [3]: > 50000 ng/mL; IC50, pseudovirus neutralization [4]: 7 ng/mL; IC50, pseudovirus neutralization [5]: 6910 ng/mL; IC50, pseudovirus neutralization [6]: 6 ng/mL; IC50, pseudovirus neutralization [7]: 1 ng/mL; IC50, pseudovirus neutralization [8]: 3 ng/mL; IC50, pseudovirus neutralization [9]: 3 ng/mL; IC50, pseudovirus neutralization [10]: > 50000 ng/mL; IC80, pseudovirus neutralization (M1) [11]: 39 ng/mL; IC80, pseudovirus neutralization (M2) [11]: 33 ng/mL; IC50, pseudovirus neutralization [12]: 0.8 ng/mL; IC50, pseudovirus neutralization [13]: > 50000 ng/mL; IC50, pseudovirus neutralization [14]: 2 ng/mL; IC50, pseudovirus neutralization [15]: 3 ng/mL; IC50, pseudovirus neutralization [16]: 2 ng/mL; IC50, pseudovirus neutralization [17]: 3 ng/mL; IC50, pseudovirus neutralization [18]: 3 ng/mL; IC50, pseudovirus neutralization [19]: > 50000 ng/mL; IC50, pseudovirus neutralization [20]: 3 ng/mL; IC80, pseudovirus neutralization (M1) [21]: 2 ng/mL; IC80, pseudovirus neutralization (M2) [21]: 2 ng/mL; IC50, pseudovirus neutralization [22]: 1 ng/mL; IC50, pseudovirus neutralization [23]: 15 ng/mL; IC80, pseudovirus neutralization (M1) [24]: 4 ng/mL; IC80, pseudovirus neutralization (M2) [24]: 5 ng/mL; IC80, pseudovirus neutralization (M1) [25]: 302 ng/mL; IC80, pseudovirus neutralization (M2) [25]: 337 ng/mL; IC50, pseudovirus neutralization [26]: > 50000 ng/mL; IC80, pseudovirus neutralization (M1) [27]: 3 ng/mL; IC80, pseudovirus neutralization (M2) [27]: 3 ng/mL; IC80, pseudovirus neutralization (M1) [28]: 13 ng/mL; IC80, pseudovirus neutralization (M2) [28]: 13 ng/mL; IC50, pseudovirus neutralization [29]: 1 ng/mL; IC50, pseudovirus neutralization [30]: > 50000 ng/mL; IC50, pseudovirus neutralization [31]: 4 ng/mL; IC50, pseudovirus neutralization [32]: 1 ng/mL; IC80, pseudovirus neutralization (M1) [33]: 9 ng/mL; IC80, pseudovirus neutralization (M2) [33]: 10 ng/mL; IC50, pseudovirus neutralization [34]: 2 ng/mL; IC50, pseudovirus neutralization [35]: 4 ng/mL; IC50, pseudovirus neutralization [36]: 2 ng/mL; IC50, pseudovirus neutralization [37]: 7180 ng/mL; IC50, pseudovirus neutralization [38]: 267 ng/mL; IC50, pseudovirus neutralization [39]: 4 ng/mL; IC50, pseudovirus neutralization [40]: > 50000 ng/mL; IC50, pseudovirus neutralization [41]: 2 ng/mL; IC80, pseudovirus neutralization (M1) [42]: 3 ng/mL; IC80, pseudovirus neutralization (M2) [42]: 3 ng/mL; IC50, pseudovirus neutralization [43]: 1 ng/mL; IC50, pseudovirus neutralization [44]: 17300 ng/mL; IC50, pseudovirus neutralization [45]: > 50000 ng/mL; IC80, pseudovirus neutralization (M1) [46]: 1250 ng/mL; IC80, pseudovirus neutralization (M2) [46]: 1430 ng/mL; IC80, pseudovirus neutralization (M1) [47]: 4 ng/mL; IC80, pseudovirus neutralization (M2) [47]: 4 ng/mL; IC80, pseudovirus neutralization (M1) [48]: 5 ng/mL; IC80, pseudovirus neutralization (M2) [48]: 7 ng/mL; IC80, pseudovirus neutralization (M1) [49]: 2940 ng/mL; IC80, pseudovirus neutralization (M2) [49]: 2620 ng/mL; IC50, pseudovirus neutralization [50]: > 50000 ng/mL

B2: ePGT121.15.H2.L1 (antibody, V domains shown)
VH: B1 VH with Y113W, Y114F, P120E, T121V
VL: B1 VL with T14S, P32A, R37K, S71T, E95V, L96F, P98G
Q: How did the neutralization (Table 6 value) [11] turn out when B2 was run?
A: 0.00464

Q: And the neutralization (Table 6 value) [21]?
A: 0.000874

B3: ePGT121.18.17 (ePGT121.18.H17 VH and ePGT121.17.L1 VL) (antibody, V domains shown)
VH: B1 VH with H68T, L69I, H72D
VL: B1 VL
Q: For B3, which IC50, pseudovirus neutralization [1] is on record?
A: 13 ng/mL

Q: What about the IC50, pseudovirus neutralization [2] of the same binder?
A: 5 ng/mL

Q: And the IC50, pseudovirus neutralization [3]?
A: > 50000 ng/mL

Q: And the IC50, pseudovirus neutralization [4]?
A: 35 ng/mL

Q: And the IC50, pseudovirus neutralization [5]?
A: 1510 ng/mL

Q: What about the IC50, pseudovirus neutralization [6] of the same binder?
A: 45 ng/mL

Q: What about the IC50, pseudovirus neutralization [7] of the same binder?
A: 4 ng/mL

Q: And the IC50, pseudovirus neutralization [8]?
A: 8 ng/mL

Q: What about the IC50, pseudovirus neutralization [9] of the same binder?
A: 5 ng/mL

Q: What about the IC50, pseudovirus neutralization [10] of the same binder?
A: > 50000 ng/mL

Q: What about the IC80, pseudovirus neutralization [11] of the same binder?
A: 195 ng/mL

Q: And the IC50, pseudovirus neutralization [12]?
A: 3 ng/mL

Q: And the IC50, pseudovirus neutralization [13]?
A: > 50000 ng/mL

Q: And the IC50, pseudovirus neutralization [14]?
A: 3 ng/mL

Q: And the IC50, pseudovirus neutralization [15]?
A: 4 ng/mL

Q: What about the IC50, pseudovirus neutralization [16] of the same binder?
A: 4 ng/mL

Q: And the IC50, pseudovirus neutralization [17]?
A: 10 ng/mL

Q: And the IC50, pseudovirus neutralization [18]?
A: 4 ng/mL

Q: What about the IC50, pseudovirus neutralization [19] of the same binder?
A: > 50000 ng/mL

Q: And the IC50, pseudovirus neutralization [20]?
A: 15 ng/mL

Q: What about the IC80, pseudovirus neutralization [21] of the same binder?
A: 5 ng/mL

Q: What about the IC50, pseudovirus neutralization [22] of the same binder?
A: 6 ng/mL

Q: What about the IC50, pseudovirus neutralization [23] of the same binder?
A: 104 ng/mL

Q: What about the IC80, pseudovirus neutralization [24] of the same binder?
A: 9 ng/mL

Q: What about the IC80, pseudovirus neutralization [25] of the same binder?
A: 1000 ng/mL

Q: What about the IC50, pseudovirus neutralization [26] of the same binder?
A: > 50000 ng/mL

Q: What about the IC80, pseudovirus neutralization [27] of the same binder?
A: 6 ng/mL

Q: What about the IC80, pseudovirus neutralization [28] of the same binder?
A: 36 ng/mL

Q: And the IC50, pseudovirus neutralization [29]?
A: 2 ng/mL

Q: And the IC50, pseudovirus neutralization [30]?
A: > 50000 ng/mL

Q: And the IC50, pseudovirus neutralization [31]?
A: 20 ng/mL

Q: What about the IC50, pseudovirus neutralization [32] of the same binder?
A: 4 ng/mL

Q: And the IC80, pseudovirus neutralization [33]?
A: 38 ng/mL

Q: What about the IC50, pseudovirus neutralization [34] of the same binder?
A: 11 ng/mL

Q: And the IC50, pseudovirus neutralization [35]?
A: 12 ng/mL

Q: And the IC50, pseudovirus neutralization [36]?
A: 4 ng/mL

Q: What about the IC50, pseudovirus neutralization [37] of the same binder?
A: 47000 ng/mL

Q: What about the IC50, pseudovirus neutralization [38] of the same binder?
A: 957 ng/mL

Q: And the IC50, pseudovirus neutralization [39]?
A: 7 ng/mL

Q: What about the IC50, pseudovirus neutralization [40] of the same binder?
A: > 50000 ng/mL

Q: And the IC50, pseudovirus neutralization [41]?
A: 4 ng/mL

Q: What about the IC80, pseudovirus neutralization [42] of the same binder?
A: 5 ng/mL

Q: And the IC50, pseudovirus neutralization [43]?
A: 3 ng/mL

Q: And the IC50, pseudovirus neutralization [44]?
A: > 50000 ng/mL

Q: And the IC50, pseudovirus neutralization [45]?
A: > 50000 ng/mL

Q: And the IC80, pseudovirus neutralization [46]?
A: 1340 ng/mL

Q: What about the IC80, pseudovirus neutralization [47] of the same binder?
A: 8 ng/mL

Q: And the IC80, pseudovirus neutralization [48]?
A: 11 ng/mL

Q: What about the IC80, pseudovirus neutralization [49] of the same binder?
A: 10000 ng/mL

Q: And the IC50, pseudovirus neutralization [50]?
A: > 50000 ng/mL
